Consider one substance from patent US6855515.

pKi: −log10 of the molar value.

The experiment deals with caspase-9 (UniProt P55211). The experiment in a line: Ki printed in running text; no assay described.

Usually pKi stands for the negative decadic logarithm of the Ki, by convention in mol/L. In turn, “Ac-DEVD-CHO, N-(N-Ac-Asp-Glu-Val)-3-amino-4-oxobutanoic acid (peptide)” showed a negative logarithm of the Ki (pKi) of 7.22.
